Biological target: Melanocortin-1 receptor (MC-1R) (Mus musculus, UniProt Q01727)
Assay: radioligand competition binding with [125I]-α-MSH on B16 cells

Chain of Melanocortin-1 receptor (MC-1R) (Q01727 whole entry): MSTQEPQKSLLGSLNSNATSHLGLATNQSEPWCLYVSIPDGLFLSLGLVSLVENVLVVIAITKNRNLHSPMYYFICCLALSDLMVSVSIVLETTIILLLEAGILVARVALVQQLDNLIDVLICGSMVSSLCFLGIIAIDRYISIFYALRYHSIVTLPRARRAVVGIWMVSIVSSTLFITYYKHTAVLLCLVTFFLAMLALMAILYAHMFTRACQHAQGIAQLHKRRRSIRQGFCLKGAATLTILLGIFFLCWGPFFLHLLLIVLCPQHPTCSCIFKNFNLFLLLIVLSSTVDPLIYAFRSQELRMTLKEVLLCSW

Kd: 88 nM
Binder: SYSMEHFR [ACTH(1-8)]

From publication PMC4586518 (2015)
